Test results as given in publication PMC2796168 (2009).

B2: CCL3 (ligand)
chain: SLAADTPTACCFSYTSRQIPQNFIADYFETSSQCSKPGVIFLTKRSRQVCADPSEEWVQKYVSDLELSA
B3: Evasin-1 WT (natural protein)
chain: EDDEDYGDLGGCPFLVAENKTGYPTIVACKQDCNGTTETAPNGTRCFSIGDEGLRRMTANLPYDCPLGQCSNGDCIPKETYEVCYRRNWRDKKN

Columns and labels:
Evasin-1 WT [1] = biological target: B3; assay: SPR
Evasin-1 WT [2] = biological target: B3; assay: SPR
Evasin-1 F14A W89A [3] = biological target: T1, Evasin-1 F14A W89A (Rhipicephalus sanguineus, UniProt P0C8E7 21-114, F14A | W89A); assay: SPR; immobilized CCL3
Evasin-1 F14A W89A [4] = biological target: T1, Evasin-1 F14A W89A; assay: SPR; immobilized CCL3; remark: listed apart in the source
CCL3 [5] = biological target: B2; assay: SPR; immobilized CCL3
CCL3 [6] = biological target: B2; assay: SPR; immobilized CCL3

B1: CCL18 (protein)
chain: AQVGTNKELCCLVYTSWQIPQKFIVDYSETSPQCPKPGVILLTKRGRQICADPNKKWVQKYISDLKLNA
modifications: disulfide (positions not given here)
koff (Evasin-1 WT [1]): 0.0111 s⁻¹ | Kd (Evasin-1 WT [2]): 3.21 nM

B2
koff (Evasin-1 WT [1]): 0.00243 s⁻¹ | Kd (Evasin-1 WT [2]): 0.12 nM | koff (Evasin-1 F14A W89A [3]): 0.0146 s⁻¹ | Kd (Evasin-1 F14A W89A [4]): 32.2 nM

B3
koff (CCL3 [5]): 0.00276 s⁻¹ | Kd (CCL3 [6]): 8 nM

B4: Δ4CCL3 (ligand)
chain: ADTPTACCFSYTSRQIPQNFIADYFETSSQCSKPGVIFLTKRSRQVCADPSEEWVQKYVSDLELSA
koff (Evasin-1 WT [1]): 0.00041 s⁻¹ | Kd (Evasin-1 WT [2]): 0.17 nM

B5: CCL4 (protein)
chain: APMGSDPPTACCFSYTARKLPRNFVVDYYETSSLCSQPAVVFQTKRSKQVCADPSESWVQEYVYDLELN
modifications: disulfide (positions not given here)
koff (Evasin-1 WT [1]): 0.0022 s⁻¹ | Kd (Evasin-1 WT [2]): 0.51 nM

B6: CCL3/CCL5 chimera (ligand)
chain: ASLAADTPTACCFAYIARPLPRAHIKEYFYTSGKCSNPAVVFVTRKNRQVCANPEKKWVREYINSLEMS
koff (Evasin-1 WT [1]): 0.0038 s⁻¹ | Kd (Evasin-1 WT [2]): 1.02 nM
